Common to all, as to experiment: Crosslinking/co-immunoprecipitation/mass spectrometry (TMT quantitative proteomics) to identify irisin receptors
What all share (format): binding

Experiment [1] concerns the target T1, MLO-Y4 cell surface proteins (Mus musculus, UniProt G3X9C2).
T1 construct: endogenous in cells; host or cells: MLO-Y4
T1 sequence (G3X9C2 1-266): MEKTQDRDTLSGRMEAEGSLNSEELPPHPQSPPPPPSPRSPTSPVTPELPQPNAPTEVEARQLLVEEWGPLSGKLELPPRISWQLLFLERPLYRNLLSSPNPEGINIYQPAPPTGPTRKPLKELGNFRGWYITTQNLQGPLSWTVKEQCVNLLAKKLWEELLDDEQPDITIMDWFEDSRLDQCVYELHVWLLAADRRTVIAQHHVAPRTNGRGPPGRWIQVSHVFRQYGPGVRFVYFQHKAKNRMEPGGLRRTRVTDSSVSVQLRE
To be noted: co-precipitated protein Nccrp1 (FBX50_MOUSE). Summed up: (§1)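 Mouse MLO-Y4 cells were switched to serum-free FreeStyle medium for 4 h, chilled, then exposed to 10 nM His-tagged irisin (or adipsin as control) for 20 min. Cells were crosslinked with 1.5 mM DTSSP (30 min, ice), and bound proteins were pulled down on Ni-NTA and eluted with 250 mM imidazole. Eluates were separated by SDS-PAGE, trypsin-digested in gel, TMT 6-plex labelled and quantified by MS3-based LC-MS/MS on an Orbitrap Fusion Lumos.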

The target of experiment [2] is T2, MLO-Y4 cell surface proteins (Mus musculus, UniProt Q9DCW4).
T2 construct: endogenous in cells; host or cells: MLO-Y4
T2 sequence (Q9DCW4 1-255): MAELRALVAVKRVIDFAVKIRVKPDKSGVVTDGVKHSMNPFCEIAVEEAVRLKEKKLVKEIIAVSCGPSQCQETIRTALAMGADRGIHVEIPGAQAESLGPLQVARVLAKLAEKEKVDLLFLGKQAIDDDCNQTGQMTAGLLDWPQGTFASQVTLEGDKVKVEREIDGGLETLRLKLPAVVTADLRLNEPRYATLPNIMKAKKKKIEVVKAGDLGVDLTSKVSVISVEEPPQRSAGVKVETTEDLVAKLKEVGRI
To be noted: co-precipitated protein Etfb (ETFB_MOUSE). The procedure, abridged: as §1

The target in experiment [3] is T3, MLO-Y4 cell surface proteins (Mus musculus, UniProt Q6NWW9).
T3 construct: endogenous in cells; host or cells: MLO-Y4
T3 sequence (Q6NWW9 whole entry): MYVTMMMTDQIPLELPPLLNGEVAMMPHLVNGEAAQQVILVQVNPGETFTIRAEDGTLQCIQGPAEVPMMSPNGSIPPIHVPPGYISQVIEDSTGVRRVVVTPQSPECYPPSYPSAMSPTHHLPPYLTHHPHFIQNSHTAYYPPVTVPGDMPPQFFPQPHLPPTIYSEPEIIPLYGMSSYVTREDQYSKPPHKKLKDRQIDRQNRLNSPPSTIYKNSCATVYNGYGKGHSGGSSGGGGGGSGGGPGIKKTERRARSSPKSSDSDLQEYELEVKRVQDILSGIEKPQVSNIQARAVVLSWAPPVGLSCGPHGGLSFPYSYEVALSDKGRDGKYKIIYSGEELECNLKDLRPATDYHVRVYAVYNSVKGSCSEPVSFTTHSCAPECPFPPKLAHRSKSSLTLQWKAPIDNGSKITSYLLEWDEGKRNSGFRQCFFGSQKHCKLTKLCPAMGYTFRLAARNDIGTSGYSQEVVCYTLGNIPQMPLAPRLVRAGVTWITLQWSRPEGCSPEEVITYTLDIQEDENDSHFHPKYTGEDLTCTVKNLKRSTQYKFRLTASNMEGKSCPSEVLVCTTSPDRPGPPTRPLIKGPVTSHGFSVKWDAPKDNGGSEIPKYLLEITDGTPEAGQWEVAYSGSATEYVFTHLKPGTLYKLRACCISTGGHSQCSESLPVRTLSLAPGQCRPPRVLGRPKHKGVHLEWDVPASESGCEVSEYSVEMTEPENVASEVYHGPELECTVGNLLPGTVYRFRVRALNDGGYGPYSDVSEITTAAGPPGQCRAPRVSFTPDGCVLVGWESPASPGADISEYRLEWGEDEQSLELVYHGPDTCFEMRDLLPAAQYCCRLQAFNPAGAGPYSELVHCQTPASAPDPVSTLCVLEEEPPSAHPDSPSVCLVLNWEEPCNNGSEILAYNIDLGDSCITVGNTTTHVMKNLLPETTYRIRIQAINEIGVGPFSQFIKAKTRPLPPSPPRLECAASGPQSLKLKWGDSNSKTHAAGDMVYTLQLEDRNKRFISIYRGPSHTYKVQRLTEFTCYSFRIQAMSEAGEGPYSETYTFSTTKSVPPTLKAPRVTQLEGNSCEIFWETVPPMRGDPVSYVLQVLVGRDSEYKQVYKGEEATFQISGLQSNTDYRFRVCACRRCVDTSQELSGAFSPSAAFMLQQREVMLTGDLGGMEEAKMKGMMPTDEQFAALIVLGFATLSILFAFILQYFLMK
To be noted: TMT ratio, Fndc3b Fibronectin type III domain-containing protein 3B. Summed up:
as §1

Experiment [4] has as its target T4, MLO-Y4 cell surface proteins (Mus musculus, UniProt Q99LC5).
T4 construct: endogenous in cells; host or cells: MLO-Y4
T4 sequence (Q99LC5 20-333): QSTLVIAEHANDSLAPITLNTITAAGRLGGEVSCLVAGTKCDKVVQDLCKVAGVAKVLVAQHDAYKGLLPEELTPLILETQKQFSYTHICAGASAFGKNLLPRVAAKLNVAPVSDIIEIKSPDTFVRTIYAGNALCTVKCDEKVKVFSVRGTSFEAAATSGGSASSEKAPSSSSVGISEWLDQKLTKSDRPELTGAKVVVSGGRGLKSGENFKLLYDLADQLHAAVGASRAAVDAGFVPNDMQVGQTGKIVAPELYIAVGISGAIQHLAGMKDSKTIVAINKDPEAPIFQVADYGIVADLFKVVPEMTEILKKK
To be noted: co-precipitated protein Etfa (ETFA_MOUSE). Summed up:
as §1

The target in experiment [5] is T5, MLO-Y4 cell surface proteins (Mus musculus, UniProt P04117).
T5 construct: endogenous in cells; host or cells: MLO-Y4
T5 sequence (P04117 1-132): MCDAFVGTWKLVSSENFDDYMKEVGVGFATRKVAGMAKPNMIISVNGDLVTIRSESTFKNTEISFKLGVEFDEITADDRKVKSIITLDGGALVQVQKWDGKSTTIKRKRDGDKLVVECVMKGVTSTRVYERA
To be noted: co-precipitated protein Fabp4 (FABP4_MOUSE). Summed up:
as §1

Consider one molecule from patent US20210063414A1, “METHODS FOR PREVENTING AND/OR TREATING BONE LOSS CONDITIONS BY MODULATING IRISIN” (Dana-Farber Cancer Institute, Inc., priority 2018, published 2021).

B1: irisin: secreted cleaved form of FNDC5; recombinant human/mouse irisin with C-terminal his tag produced in HEK293 cells (protein)
chain: DSPSAPVNVTVRHLKANSAVVSWDVLEDEVVIGFAISQQKKDVRMLRFIQEVNTTTRSCALWDLEEDTEYIVHVQAISIQGQSPASEPVLFKTPREAEKMASKNKDEVTMKE
modifications: left off: small tags and cut ends
notes: secreted cleaved form of FNDC5; recombinant human/mouse irisin with C-terminal his tag produced in HEK293 cells
For the molecule B1, the TMT signal-to-noise ratio came out at 0 in experiment [1], 409.026 in experiment [2], 44.9816 in experiment [4] and 40.1352 in experiment [5]. Besides, the “irisin/adipsin TMT signal-to-noise ratio” value is 0.000 in experiment [1], 0.560 in experiment [2], 0.561 in experiment [4] and 0.054 in experiment [5]. In addition, the irsin/adipsin in experiment [3] is listed as 2.88.
